The record followed here is article PMC6137056.

Data set [1] has as its system UVI31+ (wild type) (Chlamydomonas reinhardtii), PDB:5ZB6_1. Briefly: EMSA. To be noted: ITC: 10 mM Tris-HCl pH 7.5, 50 mM NaCl, 5% glycerol, 5 mM MgCl2, 0.1 mM EDTA, 25 C, EMSA: 10 mM Na-phosphate pH 7.5, 10 mM NaCl, 1 mM MgCl2, 37 C, 5 min, 1 uM …. For orientation: In EMSA bound probe runs differently from free probe, usually more slowly.
Data set [2] shares this test system. In words: ITC. To be noted: ITC: 10 mM Tris-HCl pH 7.5, 50 mM NaCl, 5% glycerol, 5 mM MgCl2, 0.1 mM EDTA, EMSA: 10 mM Na-phosphate pH 7.5, 10 mM NaCl, 1 mM MgCl2, 37 C, 5 min, 1 uM …; for Ka (M-1 (unit not given)): 5 mM MgCl2, 25 C.

The substance 50-bp dsDNA (EMSA) yielded a Kd in data set [1] of 1100 nM.

Take ssDNA (EMSA, 50-mer): in data set [1] (1 mM MgCl2, partial loss of ssDNA by cleavage), the Kd turned out to be 1400 nM.

As for “CGCGAATTCGCG (double strand) [12-mer self-complementary ds-DNA]”, the Ka (M-1 (unit not given)) in data set [2] (K1, sequential binding model) came to 3.05e+06; in data set [2] (K2, sequential binding model), 11400. For the same substance, the Kd in data set [2] (apparent Kd, two sets of sites, 5 mM MgCl2, 50 mM NaCl, pH 7.5, 25 C) is 5.36 µM.
